Assay results reported in article PMC4569318 (Molecular Biology of the Cell, 2015).

What was measured:
Sro7-D361K = target: T1, Sro7-D361K (S. cerevisiae, UniProt Q12038 1-1033, D361K); experiment: pull-down
T1 sequence: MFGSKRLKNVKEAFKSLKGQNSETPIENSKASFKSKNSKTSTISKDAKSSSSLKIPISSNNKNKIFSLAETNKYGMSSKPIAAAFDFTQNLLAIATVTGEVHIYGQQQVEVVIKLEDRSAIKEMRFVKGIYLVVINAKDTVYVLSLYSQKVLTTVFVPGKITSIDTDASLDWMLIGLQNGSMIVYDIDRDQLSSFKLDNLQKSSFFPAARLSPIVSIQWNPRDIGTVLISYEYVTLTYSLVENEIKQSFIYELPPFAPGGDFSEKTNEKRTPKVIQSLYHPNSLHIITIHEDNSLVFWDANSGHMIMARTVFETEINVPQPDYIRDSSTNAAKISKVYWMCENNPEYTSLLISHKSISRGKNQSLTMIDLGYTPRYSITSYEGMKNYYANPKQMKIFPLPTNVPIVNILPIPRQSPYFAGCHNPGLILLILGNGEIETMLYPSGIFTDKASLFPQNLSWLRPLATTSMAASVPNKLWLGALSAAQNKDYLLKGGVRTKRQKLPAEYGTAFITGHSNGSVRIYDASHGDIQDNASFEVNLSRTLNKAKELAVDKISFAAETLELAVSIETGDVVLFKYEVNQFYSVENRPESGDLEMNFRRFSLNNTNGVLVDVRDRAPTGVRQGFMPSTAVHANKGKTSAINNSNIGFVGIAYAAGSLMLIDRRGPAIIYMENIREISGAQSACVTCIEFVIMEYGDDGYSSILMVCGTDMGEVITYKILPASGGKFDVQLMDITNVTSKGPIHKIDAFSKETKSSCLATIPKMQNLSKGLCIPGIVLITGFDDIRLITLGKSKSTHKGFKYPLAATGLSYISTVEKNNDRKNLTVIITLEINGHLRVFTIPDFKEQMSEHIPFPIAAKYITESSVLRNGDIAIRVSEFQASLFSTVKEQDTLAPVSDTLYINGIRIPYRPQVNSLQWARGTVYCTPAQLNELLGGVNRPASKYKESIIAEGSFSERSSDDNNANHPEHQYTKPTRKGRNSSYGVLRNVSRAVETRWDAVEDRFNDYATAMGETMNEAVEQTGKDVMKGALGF

[1] = target: T2, Sro7 (wild type, full length) (S. cerevisiae, UniProt Q12038 1-1033); experiment: pull-down
T2 sequence: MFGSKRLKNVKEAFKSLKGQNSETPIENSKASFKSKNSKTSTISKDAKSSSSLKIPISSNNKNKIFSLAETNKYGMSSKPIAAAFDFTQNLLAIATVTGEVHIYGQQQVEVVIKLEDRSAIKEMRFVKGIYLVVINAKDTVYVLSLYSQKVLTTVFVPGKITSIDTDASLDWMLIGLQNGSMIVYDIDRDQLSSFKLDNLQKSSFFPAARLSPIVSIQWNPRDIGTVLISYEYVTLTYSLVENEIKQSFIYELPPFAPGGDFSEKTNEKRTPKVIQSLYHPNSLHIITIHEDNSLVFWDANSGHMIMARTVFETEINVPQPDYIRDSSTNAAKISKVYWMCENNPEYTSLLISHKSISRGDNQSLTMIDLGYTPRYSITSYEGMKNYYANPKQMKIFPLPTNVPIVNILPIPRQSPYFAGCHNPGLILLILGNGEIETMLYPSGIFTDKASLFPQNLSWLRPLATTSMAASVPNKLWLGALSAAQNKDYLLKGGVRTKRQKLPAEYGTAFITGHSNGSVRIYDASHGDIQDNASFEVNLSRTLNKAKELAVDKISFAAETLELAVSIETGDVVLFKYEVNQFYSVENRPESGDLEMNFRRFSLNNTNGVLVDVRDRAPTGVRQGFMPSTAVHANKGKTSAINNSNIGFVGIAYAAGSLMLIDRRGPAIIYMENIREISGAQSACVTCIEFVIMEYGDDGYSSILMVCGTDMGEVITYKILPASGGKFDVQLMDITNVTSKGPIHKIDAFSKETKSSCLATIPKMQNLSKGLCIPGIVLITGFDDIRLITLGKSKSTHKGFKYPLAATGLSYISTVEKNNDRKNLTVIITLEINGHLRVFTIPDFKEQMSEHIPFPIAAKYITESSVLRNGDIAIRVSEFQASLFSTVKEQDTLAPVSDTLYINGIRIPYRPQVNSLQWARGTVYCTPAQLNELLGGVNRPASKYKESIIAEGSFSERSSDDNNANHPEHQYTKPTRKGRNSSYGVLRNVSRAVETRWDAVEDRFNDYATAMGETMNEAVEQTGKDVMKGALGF

B1: GST-Sec4 (wild type) (natural protein)
chain: MSGLRTVSASSGNGKSYDSIMKILLIGDSGVGKSCLLVRFVEDKFNPSFITTIGIDFKIKTVDINGKKVKLQLWDTAGQERFRTITTAYYRGAMGIILVYDVTDERTFTNIKQWFKTVNEHANDEAQLLLVGNKSDMETRVVTADQGEALAKELGIPFIESSAKNDDNVNEIFFTLAKLIQEKIDSNKLVGVGNGKEGNISINSGSGNSSKSNCC
Does B1 bind (Sro7-D361K)?
Result: binds

Does B1 bind [1]?
Result: binds

B2: GST-Sec9 (full length) (natural protein)
chain: MGLKKFFKIKPPEEATPEQNKDTLMELGISVKNPSKKRKEKFAAYGKFANDKAEDKVYAPPGYEQYARPQDELEDLNASPLDANANEATAGSNRGSSGTQDLGNGAESNSMQDPYAIENDDYRYDDDPYARFQANKSNGRGSVNAAPYGDYGGGYNGTSLNSYNNDGPYSNQNTSNSWVNANGRNSLNHSNSTLNVGPSRQTRQPPVSTSTNSLSLDQRSPLANPMQEKRNPYADMNSYGGAYDSNTNRSSGTRQGSSKNANPYASMANDSYSNGNLNRSANPYSSRSVRQPQSQQAPMTYTPSFIASDEAARNSEVDLNEEPRTGEFDFEEVYADKSAENRAALDEPDLNAVMTNEDSIDLNASEVDHSSRQQQQQQWFMDEQQQQQQHFNATNNQYGDQRGYKTFEEIQKEEEARQQQEEDEAVDEIKQEIKFTKQSSVASTRNTLKMAQDAERAGMNTLGMLGHQSEQLNNVEGNLDLMKVQNKVADEKVAELKKLNRSILAVHVSNPFNSKRRRREREEQLKNRKIEEKLMREQTSQQLSQSTQRIEGAMNANNNISEVRERYQRKNVLEKAKRYQFENDEEDDEMELEIDRNLDQIQQVSNRLKKMALTTGKELDSQQKRLNNIEESTDDLDINLHMNTNRLAGIR
Does B2 bind [1]?
Result: binds
